1 molecule from paper PMC6511263 (Nature, 2018) can be followed below.

This test addresses T1, SETD3 (SET domain protein 3) (human, UniProt Q86TU7).
T1 sequence: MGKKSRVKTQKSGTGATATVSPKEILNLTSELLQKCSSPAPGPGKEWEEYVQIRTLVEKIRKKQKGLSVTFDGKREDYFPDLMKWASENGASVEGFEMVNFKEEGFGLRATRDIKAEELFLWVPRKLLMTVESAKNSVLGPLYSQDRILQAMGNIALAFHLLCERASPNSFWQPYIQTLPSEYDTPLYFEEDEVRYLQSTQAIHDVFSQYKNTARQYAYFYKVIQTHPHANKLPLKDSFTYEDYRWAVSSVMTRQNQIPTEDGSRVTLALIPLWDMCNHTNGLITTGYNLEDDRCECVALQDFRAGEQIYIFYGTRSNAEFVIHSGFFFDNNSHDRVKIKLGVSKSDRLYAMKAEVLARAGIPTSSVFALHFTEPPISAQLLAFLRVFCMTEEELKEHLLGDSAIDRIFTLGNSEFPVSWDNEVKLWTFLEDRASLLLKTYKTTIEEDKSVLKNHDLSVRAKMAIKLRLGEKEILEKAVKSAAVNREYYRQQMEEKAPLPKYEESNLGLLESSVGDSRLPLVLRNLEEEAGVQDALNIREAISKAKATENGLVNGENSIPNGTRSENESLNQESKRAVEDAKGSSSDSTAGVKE
The test can be described thus: crystal structure.

TLKYPIEHGIVTNWD [Human beta-actin peptide (residues 66-80)]: the binding result was “binds”.
